Laboratory results from the supplement of paper PMC10567573.
± gives the standard deviation.

Test: protein stability index of a GFP-peptide fusion (GPS, HEK-293T) (PSI 1-6); higher = more stable
Settings: c terminus: a fixed tail appended
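Note: 24-mer peptide tiles fused after GFP, lentivirally expressed, FACS-sorted into six equal bins by GFP/DsRed ratio, decoded by Illumina sequencing, PSI is the read-weighted mean bin number.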

Sequence	protein stability index (treatment: DMSO)	protein stability index (treatment: MLN4924 1 uM, 8 h)
EECAKWLLLNNANPNLSNRRGSTP [RIPK4]	3.56 ± 0.17	3.71 ± 0.067
EEDKDEKSSIYESDFQIEPGFYAT [MIA2]	4.61 ± 0.062	4.46 ± 0.4
EEEEEEEGSGHSTGEDSAFQEPDS [WEE1]	5.7 ± 0.16	5.62 ± 0.11
EEFISNTLFKKIQALQKEKETLAV [CCDC6]	3.27 ± 0.33	3.39 ± 0.33
EEIDVDGKFIRLKNTSEQDQPMGG [LMNB1]	5.15 ± 0.46	5.47 ± 0.43
EELNKEVASNSELVQSSRSEVTEL [KRT16]	5.51 ± 0.16	5.55 ± 0.24
EERLERCMSIVTSMTAGVSEREAN [INTS3]	4.84 ± 0.35	4.78 ± 0.29
EFIRDILIHPELNEGLMKWENRHE [ELF3]	2 ± 0.27	2.3 ± 0.48
EGASPLSERCQRQLQSLCRGLGLG [FANCE]	3.31 ± 0.13	3.02 ± 0.32
EGEPATQRQDPAAAQEGEDEGASA [GAGE1]	5.55 ± 0.11	5.56 ± 0.26
EGNECKKMDMSVLEISGIIMSRVN [PHTF1]	2.55 ± 0.37	2.46 ± 0.31
EGRLERRECGLAAPRFSFNDPSGS [IRX6]	3.79 ± 0.27	3.98 ± 0.2
EHPNLVRDHVETELLKEAELIRNI [TEKT4]	4.6 ± 0.12	4.56 ± 0.21
EHQPDNIKALFRKGKVLAQQGEYS [FKBP8]	3.97 ± 0.36	3.87 ± 0.19
EIPENYNSAMPFKILYDDGKMVEE [PTPRD]	4.55 ± 0.2	4.79 ± 0.071
EISEAFTSTGFDRHTSPVFSPANP [BCL2L13]	3.9 ± 0.24	3.99 ± 0.25
EITTQFLIYASYFALIAVVFLASG [SLC19A2]	3.12 ± 0.9	3.33 ± 0.31
EKAHECTDCGKAFLKKSQLTEHKR [ZNF649]	3.54 ± 0.29	3.81 ± 0.38
EKFVFFIGSKNGGKTTIILRCLDR [DYNC2LI1]	3.27 ± 0.27	2.53 ± 0.22
EKQLAKKEQSKELQMKLEKLREKE [FAM50A]	5.34 ± 0.35	5.17 ± 0.39
EKYKPFSQVPTGEVFYYSCEYNFV [CFHR2]	2.78 ± 1.5	–
ELAYMKKNHEEEMKEFSNQVVGQV [KRT13]	4.7 ± 0.26	4.66 ± 0.14

Sequence	protein stability index (treatment: DMSO)	protein stability index (treatment: MLN4924 1 uM, 8 h)
ELFYRVNYIGTKNVIETCKEAGVQ [NSDHL]	2.14 ± 0.21	2.08 ± 0.54
ELGEEPQPRDEEEAELELLRQFDL [POLD4]	5.41 ± 0.26	5.51 ± 0.3
ELIRNIYNSFHKLRDRAERIASRA [SNX8]	2.22 ± 0.75	2.17 ± 0.27
ELKKLKNLEGNELQRHADEFLLDL [FUT8]	3.61 ± 0.25	3.59 ± 0.3
ELKRLVESRRQQILREFEELHRRL [TRIM39]	2.44 ± 0.31	2.72 ± 0.38
ELQSLMHQPKGLEEENAQLRGALQ [PBXIP1]	4.25 ± 0.23	4.04 ± 0.29
ELRTAKDSDDDDDVAVTVDRDRFM [STX1A]	5.37 ± 0.06	5.25 ± 0.14
ELVALIPHSDQRLRPQRTKQYVLL [TMEM106C]	2.02 ± 0.33	2.17 ± 0.22
EMGGSEGIVESIQIMKEGKATASE [NETO1]	5.58 ± 0.21	5.611 ± 0.038
EMQIENLKEELAYLKKNHEEEMNA [KRT17]	4.67 ± 0.24	4.88 ± 0.33
ENKQVVIIHHMRLQAKALQLIVTA [INTS4]	3.01 ± 0.56	3.03 ± 0.44
ENLSVPVIGALLRFNQAILVSRHD [LPCAT4]	2.43 ± 0.61	2.5 ± 0.34
EPFPSSDDSPRSALAAATAAAAAA [SPAG8]	5.2 ± 0.16	5.05 ± 0.18
EPGNFIPLFTPQSPVTATLSDEDD [CDC25A]	5.56 ± 0.18	5.69 ± 0.13
EPPPPLHNNNNNCEENEQSLPPPA [BNIP3L]	5.51 ± 0.27	5.68 ± 0.13
EPSFAQFSQEIGLASLGASEEAVQ [TPH1]	5.17 ± 0.61	4.99 ± 0.37
EPSIAPTSCAGNLPSRPPPLLSPL [RSPH3]	3.72 ± 0.2	3.83 ± 0.14
EQERRLSEARLSQRDLSPTAEDAE [FCHSD1]	5.41 ± 0.23	5.6 ± 0.26
EQKAAGSASAKRVWNMTATRPKKM [FATE1]	4.43 ± 0.16	4.39 ± 0.22
EQLIEAISNGDFESYTKMCDPGMT [CAMK2A]	3.92 ± 0.28	3.76 ± 0.44
EQSSCTMTPDIHELVENIKSVLKS [FAM189A2]	2.19 ± 0.29	2.4 ± 0.37
ERIDCQGIPPSSKDKLGVWVYKNK [KLHDC2]	3.75 ± 0.23	3.64 ± 0.34

Sequence	protein stability index (treatment: DMSO)	protein stability index (treatment: MLN4924 1 uM, 8 h)
ERILGPSHPDTSYYIRYRGAVYAD [FEM1A]	2.94 ± 0.2	2.92 ± 0.29
ERLQAAGTDSAGPKTVPSHVFSEL [ELOA2]	4.06 ± 0.15	4.4 ± 0.14
ERTQLRLESLEDTHIMKGEDDALS [TRIB1]	5.27 ± 0.21	5.34 ± 0.41
ERVTVAKLTLENFYSNLILQHEER [STK38L]	2.85 ± 0.28	2.99 ± 0.31
ESACSSDSLDEARSSGSEGTPADT [PWWP2B]	5.7 ± 0.11	5.5 ± 0.21
ESLQELRLLLAGAEVQAKLENAEV [HES6]	2.84 ± 0.41	3.15 ± 0.4
ETPQPSPPGGSGSEPYKLLPGAVA [HNF4A]	5.06 ± 0.21	4.92 ± 0.11
ETQLKACASFIRTRLLLQFTQPQQ [C8orf76]	2.93 ± 0.65	2.86 ± 0.88
ETREYAPPSRGHGYRDYGHSRRHE [RBMY1A1]	4.58 ± 0.35	4.71 ± 0.13
EVAEQLELERIGPQHQAGSDSLLT [CNOT7]	4.9 ± 0.14	4.85 ± 0.15
EVDVQEAGAGWWVGAAYASLRRRG [TRIM14]	3.4 ± 0.28	3.38 ± 0.4
EVILGDIWKLNLQTFQWVKLPATM [KLHDC10]	2.51 ± 0.51	2.21 ± 0.3
EWASHTAALTNKHSQELTNEKEKA [SASS6]	5.574 ± 0.002	5.39 ± 0.19
EYIDPETKKHIPYREHKSLTGTAR [CSNK1G1]	4.15 ± 0.28	4.08 ± 0.42
FAESLQCKVDCEANLTPNVGGYFV [P3H4]	2.22 ± 0.9	2.42 ± 0.65
FALIAVVFLASGAVSVMKKCRKLE [SLC19A2]	3.18 ± 0.35	3 ± 0.29
FATPEREMRISESAASGARFPLDS [PCDHGC5]	4.44 ± 0.11	4.57 ± 0.3
FDIARIERCNQLLRALKLVITALK [ZER1]	2.33 ± 0.6	2.41 ± 0.37
FDVHPNELTNGVINAAFMLLFKDL [SNAP91]	2.84 ± 0.81	2.24 ± 0.41
FEREPSTSDLGTTDVQKKKLVDAI [RIPK4]	4.62 ± 0.084	4.87 ± 0.29
FETQLKTLCQFPETLLGDPKRRMR [KCNA3]	3.54 ± 0.35	3.65 ± 0.28
